The text below walks through data of IntAct's records for PubMed 23665169.

The target in this assay is stk25_human STK25 (UniProt O00506).
Chain of stk25_human STK25 (O00506 whole entry, looked up): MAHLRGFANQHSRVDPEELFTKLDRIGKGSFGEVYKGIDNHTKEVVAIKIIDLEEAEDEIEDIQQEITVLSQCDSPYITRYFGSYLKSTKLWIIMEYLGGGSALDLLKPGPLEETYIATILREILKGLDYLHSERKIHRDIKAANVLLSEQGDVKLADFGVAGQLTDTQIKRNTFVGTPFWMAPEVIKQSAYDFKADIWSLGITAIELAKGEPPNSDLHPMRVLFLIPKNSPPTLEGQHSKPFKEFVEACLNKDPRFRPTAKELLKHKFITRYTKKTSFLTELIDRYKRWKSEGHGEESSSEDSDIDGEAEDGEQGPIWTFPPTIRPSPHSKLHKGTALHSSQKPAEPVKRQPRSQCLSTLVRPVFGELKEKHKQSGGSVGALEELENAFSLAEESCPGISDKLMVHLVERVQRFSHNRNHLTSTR

Chain of Programmed cell death protein 10 (Homo sapiens), Q9BUL8 F76D;L80D;M83D (Q9BUL8 whole entry F76D/L80D/M83D): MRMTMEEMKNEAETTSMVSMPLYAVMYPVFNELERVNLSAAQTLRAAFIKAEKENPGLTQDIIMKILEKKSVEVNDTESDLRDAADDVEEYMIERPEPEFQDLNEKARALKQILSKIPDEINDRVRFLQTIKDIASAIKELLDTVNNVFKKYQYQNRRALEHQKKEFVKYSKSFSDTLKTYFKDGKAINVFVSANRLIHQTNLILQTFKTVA

As for “Programmed cell death protein 10 (Homo sapiens), Q9BUL8 F76D;L80D;M83D”, the “effect of a mutation on the interaction” value is listed as “decreasing interaction strength”.
